The values below come from patent US20260091061A1 (LEGEND BIOTECH IRELAND, published 2026).

T1: mouse GCC (mouse, UniProt Q3UWA6 20-1072)
T1 construct: whole, on cells; also called mGCC; HEK293T.mGCC.Luc cells
T1 sequence (looked up): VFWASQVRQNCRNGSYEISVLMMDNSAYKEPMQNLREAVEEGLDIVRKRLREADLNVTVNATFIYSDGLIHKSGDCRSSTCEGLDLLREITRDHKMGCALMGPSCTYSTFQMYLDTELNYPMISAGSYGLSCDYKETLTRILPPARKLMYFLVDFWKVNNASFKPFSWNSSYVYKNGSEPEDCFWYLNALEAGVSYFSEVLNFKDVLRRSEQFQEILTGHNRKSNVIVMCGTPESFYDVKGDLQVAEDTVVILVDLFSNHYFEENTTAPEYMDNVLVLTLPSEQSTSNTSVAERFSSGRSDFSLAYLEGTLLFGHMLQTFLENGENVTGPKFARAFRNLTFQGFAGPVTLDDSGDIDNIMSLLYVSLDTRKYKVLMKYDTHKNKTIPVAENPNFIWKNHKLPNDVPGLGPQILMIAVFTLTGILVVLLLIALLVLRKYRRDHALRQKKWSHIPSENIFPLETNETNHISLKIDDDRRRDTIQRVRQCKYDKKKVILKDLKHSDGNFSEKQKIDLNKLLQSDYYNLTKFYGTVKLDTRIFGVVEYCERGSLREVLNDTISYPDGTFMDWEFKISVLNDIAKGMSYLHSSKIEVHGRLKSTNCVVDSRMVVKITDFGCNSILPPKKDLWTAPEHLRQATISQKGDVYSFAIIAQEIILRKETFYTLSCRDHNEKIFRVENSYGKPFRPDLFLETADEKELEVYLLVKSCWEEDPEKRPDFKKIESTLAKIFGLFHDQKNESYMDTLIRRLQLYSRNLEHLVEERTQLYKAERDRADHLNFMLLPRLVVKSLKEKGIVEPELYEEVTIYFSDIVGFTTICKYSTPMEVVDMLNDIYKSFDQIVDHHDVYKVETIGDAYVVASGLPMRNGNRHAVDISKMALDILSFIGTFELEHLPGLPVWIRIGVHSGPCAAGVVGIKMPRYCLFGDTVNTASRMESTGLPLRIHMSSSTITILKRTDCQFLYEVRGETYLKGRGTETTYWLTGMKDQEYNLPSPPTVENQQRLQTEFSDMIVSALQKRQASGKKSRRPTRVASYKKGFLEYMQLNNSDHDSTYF

B1: VHHA2322H2-mIgG1Fc (Fc fusion)
chain: QVHLVESGGGVVQPGRSLRLSCAASGYTGRRLCRGWFRQAPGKEREGVATITLSGRASYADSVKGRFTISQDNSKNTLYLQMNSLRAEDTAVYFCAEVRSADAEWLNPLKCHPDRLGLAGVDWGQGTTVTVSSVPRDCGCKPCICTVPEVSSVFIFPPKPKDVLTITLTPKVTCVVVDISKDDPEVQFSWFVDDVEVHTAQTQPREEQFNSTFRSVSELPIMHQDWLNGKEFKCRVNSAAFPAPIEKTISKTKGRPKAPQVYTIPPPKEQMAKDKVSLTCMITDFFPEDITVEWQWNGQPAENYKNTQPIMNTNGSYFVYSKLNVQKSNWEAGNTFTCSVLHEGLHNHHTEKSLSHSPGK
notes: also called humanized chimeric antibody VHHA2322H2-mIgG1Fc
B2: VHHC0694H2-mIgG1Fc (Fc fusion)
chain: QVQLVESGGGVVQPGRSLRLSCAASGYTYSRYCMAWFRQAPGKEREGVAVIDPDGSTTYADSVKGRFTISQDNSKNTLYLQMNSLRAEDTAVYYCAADPRVWYGGTCRAGRTDFSNWGQGTMVTVSSVPRDCGCKPCICTVPEVSSVFIFPPKPKDVLTITLTPKVTCVVVDISKDDPEVQFSWFVDDVEVHTAQTQPREEQFNSTFRSVSELPIMHQDWLNGKEFKCRVNSAAFPAPIEKTISKTKGRPKAPQVYTIPPPKEQMAKDKVSLTCMITDFFPEDITVEWQWNGQPAENYKNTQPIMNTNGSYFVYSKLNVQKSNWEAGNTFTCSVLHEGLHNHHTEKSLSHSPGK
notes: also called humanized chimeric antibody VHHC0694H2-mIgG1Fc
B3: VHHC0708H2-mIgG1Fc (Fc fusion)
chain: EVQLVESGGGVVQPGGSLRLSCAASGYTYSRYCMGWVRQAPGKEREGVALIASDGTTTYADSVKGRFTISQDNSKNTLYLQMNSLRAEDTAVYYCAADAVNWYGSICASMIRRKNPAFGYWGQGTLVTVSSVPRDCGCKPCICTVPEVSSVFIFPPKPKDVLTITLTPKVTCVVVDISKDDPEVQFSWFVDDVEVHTAQTQPREEQFNSTFRSVSELPIMHQDWLNGKEFKCRVNSAAFPAPIEKTISKTKGRPKAPQVYTIPPPKEQMAKDKVSLTCMITDFFPEDITVEWQWNGQPAENYKNTQPIMNTNGSYFVYSKLNVQKSNWEAGNTFTCSVLHEGLHNHHTEKSLSHSPGK
notes: also called humanized chimeric antibody VHHC0708H2-mIgG1Fc
B4: VHHA2322 (VHH)
VHH: QVHLVESGGGSVQSGGSLRLSCAASGYTGRRLCRGWFRQTPGKEREGVATITLSGRASYADSVKGRFTISQDNAKNTLYLQMNGLKPEDTAMYFCAEVRSADAEWLNPLKCHPDRLGLAGVDWGQGTQVTVSS
notes: Screened as E. coli culture supernatant and detected with an anti-cmyc antibody
B5: VHHA2493 (VHH)
VHH: QMQLVESGGGSVQSGGSLRLSCATNEPPYSIYCMAWFRQAPGKARERVAAILNAGGTRYADSVKGRFTISRDNAAKTFALQMNSLKPEDTGTYYCATRADAGRWGSACTTELDFGNWGQGTQVTVSS
notes: as for B4
B6: VHHC0494 (VHH)
VHH: QVHLVESGGGSVQSGGSLRLSCATSASPYSMHCMGWFRQAPGKARERVASILNAGSTTYADSVKGRFTISRDNAEKTLYLQMNSLKPEDTGTYYCAARPDAGRWRSACTTELDFGYWGQGTQVTVSS
notes: as for B4
B7: VHHC0464 (VHH)
VHH: QVQLQESGGGLVQAGGSLRLSCLASGLAFPSYAMGWFRQAPGKEREWVSCVTRSGGDTLYADSAKGRFAISRDNAKNTLYLQMNSLKPEDTAMYYCAAALFCANLRRNKDNYWGQGTQVTVSS
notes: as for B4
B8: VHHC0467 (VHH)
VHH: QMQLVESGGGLVQAGGSLRLSCIASGLTFPTYAMGWFRQAPGKEREWVSCVTRSGGDTLYADSAKGRFTISRDNAKNTLFLQMNSLKPEDTAMYYCVAALFCHNLRLNTGNYWGQGTQVTVSS
notes: as for B4
B9: VHHC0806 (VHH)
VHH: QVHLVESGGGSVQSGGSLRLSCAGSGYTYSTHCMGWFRQAPGKERERVATIDKDGRTSHYADAVKGRFTISQDNAKNTLYLQMSSLNPEDTAMYYCAAAEHRGAWCPLWDRSAPLLAHIHWGQGTQVTVSS
notes: as for B4
B10: VHHC0694 (VHH)
VHH: QVQLVESGGGSVQSGGSLRLSCAASGYTYSRYCMAWFRQAPGKEREGVAVIDPDGSTTYADSVKGRFTISQDNAKNTLYLQMNSLKPEDTAMYYCAADPRVWYGGTCRAGRTDFSNWGQGTQVTVSS
notes: as for B4
B11: VHHC0524 (VHH)
VHH: QVQLAESGGGSVQSGGSLRLSCAASGYTYSRYCMAWFRQAPGKEREGVAVIVSDNDGSATYADSVKGRFTISQDNAKNMLYLQMNSLKPEDTAMYYCAADPRVWYGGTCRAGRTDFLYWGQGTQVTVSS
notes: as for B4
B12: VHHC0708 (VHH)
VHH: QVQLEESGGGSVQSGGSLRLSCAASGYTYSRYCMGWVRQAPGKEREGVALIASDGTTTYADSVKGRFTISQDNAKNTLYLQMNSLKPEDTAMYYCAADAVNWYGSICASMIRRKNPAFGYWGRGTQVTVSS
notes: as for B4

T3 sequence (P25092 24-430 limits assumed): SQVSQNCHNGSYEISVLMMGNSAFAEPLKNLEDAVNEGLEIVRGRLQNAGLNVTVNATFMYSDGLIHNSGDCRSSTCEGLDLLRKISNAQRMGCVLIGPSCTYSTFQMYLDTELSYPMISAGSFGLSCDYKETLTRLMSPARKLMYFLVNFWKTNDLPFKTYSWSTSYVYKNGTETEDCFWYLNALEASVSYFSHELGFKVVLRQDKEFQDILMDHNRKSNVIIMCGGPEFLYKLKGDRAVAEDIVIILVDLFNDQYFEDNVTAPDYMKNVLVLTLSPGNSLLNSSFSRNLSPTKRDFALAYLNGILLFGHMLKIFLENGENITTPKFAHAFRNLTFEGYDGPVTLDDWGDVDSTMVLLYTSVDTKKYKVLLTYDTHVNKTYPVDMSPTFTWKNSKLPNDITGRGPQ

The target of one test is T2, human GCC (human, UniProt P25092 24-1073).
T2 construct: whole, on cells; also called huGCC; Guanylyl cyclase C
T2 sequence (P25092 24-1073): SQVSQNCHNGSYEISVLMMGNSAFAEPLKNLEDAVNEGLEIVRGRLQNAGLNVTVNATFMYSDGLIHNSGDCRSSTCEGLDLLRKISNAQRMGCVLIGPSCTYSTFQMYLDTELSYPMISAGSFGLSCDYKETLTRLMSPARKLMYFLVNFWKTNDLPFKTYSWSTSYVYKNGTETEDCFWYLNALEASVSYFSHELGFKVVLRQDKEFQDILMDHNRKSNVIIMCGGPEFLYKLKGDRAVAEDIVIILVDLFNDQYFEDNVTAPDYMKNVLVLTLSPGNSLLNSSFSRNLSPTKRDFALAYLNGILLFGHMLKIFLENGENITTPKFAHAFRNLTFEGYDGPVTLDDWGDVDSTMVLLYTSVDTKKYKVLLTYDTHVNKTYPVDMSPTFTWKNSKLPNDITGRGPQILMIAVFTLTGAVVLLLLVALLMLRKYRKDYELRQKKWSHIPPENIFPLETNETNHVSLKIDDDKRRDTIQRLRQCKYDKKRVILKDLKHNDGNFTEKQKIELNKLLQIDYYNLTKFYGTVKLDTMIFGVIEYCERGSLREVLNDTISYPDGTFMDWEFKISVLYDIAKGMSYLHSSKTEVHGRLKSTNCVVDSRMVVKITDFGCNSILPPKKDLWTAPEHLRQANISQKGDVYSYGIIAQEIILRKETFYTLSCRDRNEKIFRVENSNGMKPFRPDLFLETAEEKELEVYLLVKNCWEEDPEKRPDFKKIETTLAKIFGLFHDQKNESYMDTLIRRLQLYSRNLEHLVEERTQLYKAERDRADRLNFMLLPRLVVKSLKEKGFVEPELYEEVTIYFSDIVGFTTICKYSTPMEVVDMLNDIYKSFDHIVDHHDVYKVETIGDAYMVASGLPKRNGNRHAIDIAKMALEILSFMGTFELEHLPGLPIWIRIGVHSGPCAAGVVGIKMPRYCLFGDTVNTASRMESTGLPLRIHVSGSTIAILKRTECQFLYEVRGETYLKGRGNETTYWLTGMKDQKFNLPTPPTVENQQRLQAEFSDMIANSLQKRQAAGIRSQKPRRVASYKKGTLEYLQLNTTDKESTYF
As to the kind of experiment: flow cytometry on HEK293T.huGCC.Luc cells, percentage of binding. A general note: In flow cytometry, cells or beads pass a laser one at a time.
In turn, B1 showed an EC50 of 0.0192 nM.
Still for that read-out and setting: the figure for B2 is 0.0315 nM.

A further test has as its target T3, huGCC-his (human, UniProt P25092 24-430, limits assumed).
T3 construct: Soluble his-tagged human GCC used as analyte on Biacore; also called GCC (SPR analyte); not shown: his tag
As to the kind of experiment: SPR, Biacore T200; antibody captured via Fc, GCC as analyte; 1:1 model. (Surface plasmon resonance follows binding to a sensor surface in real time, without labels.)
Molecule B3 returned a Kd of 1.02 nM.
With B1, binding was characterised by a dissociation constant (Kd) of 1.65 nM.
B2 showed an equilibrium dissociation constant (Kd) of 1.34 nM.

In the next test the target is T2, human GCC. As to the kind of experiment: screen of clone supernatants: cell based ELISA on HEK293T.huGCC.Luc cells and ELISA on recombinant human GCC protein (ACRO GUC-H52H5).
B4: the binding result is on record as “binds”.
Consider B5, for which the binding result is “binds”.
Turning to B6, the binding result is reported as “binds”.
On the same count and under the same terms, the entry for B7 is “binds”; for B8 it is “binds”.
On to B9, for which the binding result is given as “binds”.
Same read-out and setting: the result for B10 reads “binds”.
As for B11, the binding result was “binds”.
B12: the binding result is “binds”.

The target in another test is T1, mouse GCC. As to the kind of experiment: flow cytometry on HEK293T.mGCC.Luc cells, PE goat anti-mouse IgG secondary; Binding % = cells with antibody bound / total cells.
As to B1, the binding result is “no binding (tested: 1000 nM)”.
Take B2: the binding result is listed as “no binding (tested: 1000 nM)”.

By EC50 is commonly meant the concentration at which the effect is half-maximal. Low values mean an effect from little substance, high ones a need for much substance. For orientation: Kd means the constant that tells how readily two partners part at equilibrium. A lower Kd goes with higher affinity.
